Data published in patent publication US20060257938A1, “Method of screening for drugs that block ligand binding to a lipid binding protein” (priority 2005, published 2006).
Values joined by “and” are separate entries in the source; they are usually repeats but may differ in a detail not shown here. Identical values can stand only once.

Columns and labels:
Assay type in all cases: binding
Conditions in all cases: response relative to ADIFAB2
[1] = Probe fluorescence ratio response to arachidonic acid relative to ADIFAB2
In short: (§1)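 Fluorescently labeled rat intestinal FABP variants were read at two emission wavelengths, near the unbound maximum (about 420 to 480 nm) and the FFA-bound maximum (about 495 to 580 nm). R = Fλ1/Fλ2 after subtracting probe-free intensity; ΔR = R+agent − R0, normalized to ADIFAB2 (rI-FABP-L72A).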

[2] = Probe fluorescence ratio response to linolenic acid relative to ADIFAB2
In short: as §1

[3] = Probe fluorescence ratio response to oleic acid relative to ADIFAB2
In short: as §1

[4] = Probe fluorescence ratio response to palmitic acid relative to ADIFAB2
In short: as §1

[5] = Probe fluorescence ratio response to linoleic acid relative to ADIFAB2
In short: as §1

| Molecule | DR/DR AA ([1]; Arachidonic acid) | DR/DR LNA [2] | DR/DR OA [3] | DR/DR PA [4] | DR/DR LA [5] | DR/DR AA ([1]; arachidonic acid) |
| --- | --- | --- | --- | --- | --- | --- |
| 47E3, L72A (protein, listed as Rattus norvegicus, PEPTIDE (1)...(131) wild-type rat intestinal fatty acid binding protein) AFDGTWKVDRNENYEKFMEKMGINVVKRKLGAHDNLKLTITQEGNKETVKESSNFRNIDVVFELGVDFAYSAADGTELTGTWTMEGNKLVGKFKRVDNGKELIAVREISGNELIQTYTYEGVEAKRIFKKE | 1.25 | 1.26 | 1.25 | 1.06 | 1.23 |  |
| 47P1, L72A (protein, listed as Rattus norvegicus, PEPTIDE (1)...(131) wild-type rat intestinal fatty acid binding protein) AFDGTWKVDRNENYEKFMEKMGINVVKRKLGAHDNLKLTITQEGNKPTVKESSNFRNIDVVFELGVDFAYSAADGTELTGTWTMEGNKLVGKFKRVDNGKELIAVREISGNELIQTYTYEGVEAKRIFKKE | 0.54 | 0.61 | 0.57 | 0.26 | 0.59 |  |
| 102R, 72A (protein, listed as Rattus norvegicus, PEPTIDE (1)...(131) wild-type rat intestinal fatty acid binding protein) AFDGTWKVDRNENYEKFMEKMGINVVKRKLGAHDNLKLTITQEGNKFTVKESSNFRNIDVVFELGVDFAYSAADGTELTGTWTMEGNKLVGKFKRVDNGKERIAVREISGNELIQTYTYEGVEAKRIFKKE |  | 0.57 | 0.56 | 0.25 | 0.60 | 0.51 |
| 47H1, L72A (protein, listed as Rattus norvegicus, PEPTIDE (1)...(131) wild-type rat intestinal fatty acid binding protein) AFDGTWKVDRNENYEKFMEKMGINVVKRKLGAHDNLKLTITQEGNKHTVKESSNFRNIDVVFELGVDFAYSAADGTELTGTWTMEGNKLVGKFKRVDNGKELIAVREISGNELIQTYTYEGVEAKRIFKKE | 0.63 | 0.70 | 0.67 | 0.43 | 0.74 |  |
| 47I2, L72A (protein, listed as Rattus norvegicus, PEPTIDE (1)...(131) wild-type rat intestinal fatty acid binding protein) AFDGTWKVDRNENYEKFMEKMGINVVKRKLGAHDNLKLTITQEGNKITVKESSNFRNIDVVFELGVDFAYSAADGTELTGTWTMEGNKLVGKFKRVDNGKELIAVREISGNELIQTYTYEGVEAKRIFKKE | 1.19 | 1.19 | 1.15 | 0.92 | 1.22 |  |
| 47L2, L72A (protein, listed as Rattus norvegicus, PEPTIDE (1)...(131) wild-type rat intestinal fatty acid binding protein) AFDGTWKVDRNENYEKFMEKMGINVVKRKLGAHDNLKLTITQEGNKLTVKESSNFRNIDVVFELGVDFAYSAADGTELTGTWTMEGNKLVGKFKRVDNGKELIAVREISGNELIQTYTYEGVEAKRIFKKE | 1.15 | 1.20 | 1.20 | 0.90 | 1.21 |  |
| 47M, 72A (protein, listed as Rattus norvegicus, PEPTIDE (1)...(131) wild-type rat intestinal fatty acid binding protein) AFDGTWKVDRNENYEKFMEKMGINVVKRKLGAHDNLKLTITQEGNKMTVKESSNFRNIDVVFELGVDFAYSAADGTELTGTWTMEGNKLVGKFKRVDNGKELIAVREISGNELIQTYTYEGVEAKRIFKKE | 1.14 | 1.13 and 1.135 | 1.17 and 1.168 | 0.97 and 0.966 | 1.18 and 1.183 | 1.138 |
